Measured values from patent US20050282743A1, “Molecular interactions in cells” (Arbor Vita Corporation, priority 2001, published 2005).
Values belong to the substance of their own block, whether it stands above or below them. Ends that are not written are not given here. * marks the point of attachment. Biotin = O=C1N[C@H]2[C@H](CS[C@H]2CCCCC(=O)*)N1

Key:
Test in all cases: G' assay (10 uM PL peptide), results of TABLE 7 and TABLE 12
Type in all cases: binding
[1] = target: T1, PDZ protein (GST-PDZ fusion) (Homo sapiens, UniProt Q02410)
T1 construct: made in house; host or cells: E. coli (DH5alpha, BL21 or JM109)
T1 sequence (Q02410 1-837): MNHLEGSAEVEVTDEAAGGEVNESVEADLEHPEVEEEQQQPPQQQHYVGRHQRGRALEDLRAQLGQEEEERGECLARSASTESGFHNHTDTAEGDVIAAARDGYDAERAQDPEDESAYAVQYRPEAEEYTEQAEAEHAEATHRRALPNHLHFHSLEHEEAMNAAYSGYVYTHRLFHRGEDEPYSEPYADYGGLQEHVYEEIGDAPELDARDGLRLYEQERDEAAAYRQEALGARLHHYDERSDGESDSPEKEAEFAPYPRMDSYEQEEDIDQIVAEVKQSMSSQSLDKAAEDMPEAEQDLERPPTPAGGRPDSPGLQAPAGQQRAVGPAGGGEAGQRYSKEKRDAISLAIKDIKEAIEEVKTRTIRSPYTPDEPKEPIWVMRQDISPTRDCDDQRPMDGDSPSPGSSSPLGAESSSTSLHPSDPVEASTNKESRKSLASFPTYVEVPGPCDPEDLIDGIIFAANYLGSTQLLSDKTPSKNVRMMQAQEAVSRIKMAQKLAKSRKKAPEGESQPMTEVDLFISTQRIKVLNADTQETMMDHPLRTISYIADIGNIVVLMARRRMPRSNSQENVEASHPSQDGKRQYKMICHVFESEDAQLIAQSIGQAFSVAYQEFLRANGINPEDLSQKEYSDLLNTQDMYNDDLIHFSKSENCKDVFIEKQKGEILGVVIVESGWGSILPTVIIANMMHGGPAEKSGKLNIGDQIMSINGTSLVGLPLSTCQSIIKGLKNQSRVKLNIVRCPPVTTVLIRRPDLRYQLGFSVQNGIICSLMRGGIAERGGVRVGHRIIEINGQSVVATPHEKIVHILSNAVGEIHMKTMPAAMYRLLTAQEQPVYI
In short: (§1)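 Biotin-PL peptide (N-term label), 10 uM vs GST-PDZ; protein 5 ug/ml by default. A450 nm binned: 1 = 0-1, 2 = 1-2, 3 = 2-3, 4 = 3-4, 5 = >4 on >2 repeats, 0 = no binding.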

[2] = target: T2, PDZ protein (GST-PDZ fusion) (Homo sapiens, UniProt Q12959); details: PDZ DLG1, PDZ Domain 1, 2
T2 construct: made in house; host or cells: E. coli (DH5alpha, BL21 or JM109)
In short: as §1

[3] = target: T3, PDZ protein (GST-PDZ fusion) (Homo sapiens, UniProt Q5T2W1); details: PDZ PDZK1, PDZ Domain 2, 3, 4
T3 construct: made in house; host or cells: E. coli (DH5alpha, BL21 or JM109)
T3 sequence (Q5T2W1 1-519): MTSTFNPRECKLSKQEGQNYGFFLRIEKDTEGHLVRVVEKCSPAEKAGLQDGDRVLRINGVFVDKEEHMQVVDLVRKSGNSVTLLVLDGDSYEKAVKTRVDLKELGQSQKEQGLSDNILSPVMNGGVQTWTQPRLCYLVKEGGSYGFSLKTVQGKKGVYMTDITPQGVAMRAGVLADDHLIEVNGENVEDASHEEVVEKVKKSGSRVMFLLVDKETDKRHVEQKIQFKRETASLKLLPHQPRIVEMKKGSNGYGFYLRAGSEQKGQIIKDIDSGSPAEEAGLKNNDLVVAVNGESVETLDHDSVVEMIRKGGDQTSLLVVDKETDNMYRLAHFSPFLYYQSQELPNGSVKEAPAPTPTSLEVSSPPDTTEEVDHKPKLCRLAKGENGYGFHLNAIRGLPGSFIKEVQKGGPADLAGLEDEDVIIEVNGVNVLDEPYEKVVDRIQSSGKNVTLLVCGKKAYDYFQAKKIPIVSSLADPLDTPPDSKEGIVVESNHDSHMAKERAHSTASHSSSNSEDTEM
In short: as §1

[4] = target: T4, PDZ protein (GST-PDZ fusion) (Homo sapiens, UniProt Q6P0Q8)
T4 construct: made in house; host or cells: E. coli (DH5alpha, BL21 or JM109)
T4 sequence (Q6P0Q8 whole entry, the tested form may be a part): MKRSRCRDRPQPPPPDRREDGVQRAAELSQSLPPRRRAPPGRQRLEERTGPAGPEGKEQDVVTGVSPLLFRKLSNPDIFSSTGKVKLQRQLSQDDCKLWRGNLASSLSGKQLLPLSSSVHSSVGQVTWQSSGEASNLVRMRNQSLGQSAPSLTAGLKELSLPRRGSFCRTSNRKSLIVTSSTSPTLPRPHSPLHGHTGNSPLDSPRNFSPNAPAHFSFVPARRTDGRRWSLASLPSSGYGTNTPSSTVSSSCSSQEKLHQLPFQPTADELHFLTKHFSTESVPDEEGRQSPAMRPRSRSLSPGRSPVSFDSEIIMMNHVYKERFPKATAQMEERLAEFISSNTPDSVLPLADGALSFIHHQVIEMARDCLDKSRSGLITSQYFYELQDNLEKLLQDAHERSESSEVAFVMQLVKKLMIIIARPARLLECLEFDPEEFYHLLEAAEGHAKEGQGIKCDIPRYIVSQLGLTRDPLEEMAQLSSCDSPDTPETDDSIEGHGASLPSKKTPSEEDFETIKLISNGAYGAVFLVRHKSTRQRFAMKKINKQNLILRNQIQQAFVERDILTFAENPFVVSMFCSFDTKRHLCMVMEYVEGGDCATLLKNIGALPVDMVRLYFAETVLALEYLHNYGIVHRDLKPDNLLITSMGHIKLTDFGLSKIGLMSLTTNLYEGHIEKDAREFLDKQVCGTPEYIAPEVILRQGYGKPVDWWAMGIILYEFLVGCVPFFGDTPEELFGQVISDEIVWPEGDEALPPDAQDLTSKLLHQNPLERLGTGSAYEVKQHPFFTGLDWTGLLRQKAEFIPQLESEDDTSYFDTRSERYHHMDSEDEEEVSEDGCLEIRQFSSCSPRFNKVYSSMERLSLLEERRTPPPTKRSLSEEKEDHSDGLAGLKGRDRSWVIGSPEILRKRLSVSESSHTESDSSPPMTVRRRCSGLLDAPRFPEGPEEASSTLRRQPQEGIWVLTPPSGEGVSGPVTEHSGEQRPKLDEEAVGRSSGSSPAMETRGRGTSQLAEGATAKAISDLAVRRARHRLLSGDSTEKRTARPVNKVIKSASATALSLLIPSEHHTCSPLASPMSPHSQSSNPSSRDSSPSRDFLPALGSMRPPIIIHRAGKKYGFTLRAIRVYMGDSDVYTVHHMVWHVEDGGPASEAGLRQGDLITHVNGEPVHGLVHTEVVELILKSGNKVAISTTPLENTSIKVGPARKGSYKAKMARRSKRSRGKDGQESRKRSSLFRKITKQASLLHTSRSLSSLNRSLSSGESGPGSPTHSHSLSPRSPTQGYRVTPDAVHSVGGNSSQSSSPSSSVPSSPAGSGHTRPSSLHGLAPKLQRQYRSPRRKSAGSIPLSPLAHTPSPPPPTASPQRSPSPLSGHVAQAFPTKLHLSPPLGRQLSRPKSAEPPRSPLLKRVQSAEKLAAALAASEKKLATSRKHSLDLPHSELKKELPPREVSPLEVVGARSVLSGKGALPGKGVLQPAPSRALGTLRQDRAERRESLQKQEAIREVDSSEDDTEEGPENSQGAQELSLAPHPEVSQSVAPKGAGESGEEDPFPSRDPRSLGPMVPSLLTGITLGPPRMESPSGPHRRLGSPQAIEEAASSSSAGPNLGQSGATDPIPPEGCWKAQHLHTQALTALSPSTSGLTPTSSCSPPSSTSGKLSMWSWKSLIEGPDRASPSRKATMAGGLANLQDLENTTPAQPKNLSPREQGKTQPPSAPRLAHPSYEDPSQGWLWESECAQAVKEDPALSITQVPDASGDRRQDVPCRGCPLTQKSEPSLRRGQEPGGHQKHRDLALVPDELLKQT
In short: as §1

[5] = tested on: PDZ protein (GST-PDZ fusion)
In short: as §1

[6] = target: T5, PDZ protein (GST-PDZ fusion) (Homo sapiens, UniProt O15018); details: PDZ AIPC, PDZ Domain 1
T5 construct: made in house; host or cells: E. coli (DH5alpha, BL21 or JM109)
In short: as §1

[7] = target: T6, PDZ protein (GST-PDZ fusion) (Homo sapiens, UniProt Q12923); details: PDZ PTPL-1, PDZ Domain 4
T6 construct: made in house; host or cells: E. coli (DH5alpha, BL21 or JM109)
In short: as §1

[8] = target: T7, PDZ protein (GST-PDZ fusion) (Homo sapiens, UniProt Q13796); details: PDZ hAPXL, PDZ Domain 1
T7 construct: made in house; host or cells: E. coli (DH5alpha, BL21 or JM109)
In short: as §1

[9] = target: T8, PDZ protein (GST-PDZ fusion) (Homo sapiens, UniProt Q8TEW0); details: PDZ PAR3, PDZ Domain 3
T8 construct: made in house; host or cells: E. coli (DH5alpha, BL21 or JM109)
T8 sequence (Q8TEW0 whole entry, the tested form may be a part): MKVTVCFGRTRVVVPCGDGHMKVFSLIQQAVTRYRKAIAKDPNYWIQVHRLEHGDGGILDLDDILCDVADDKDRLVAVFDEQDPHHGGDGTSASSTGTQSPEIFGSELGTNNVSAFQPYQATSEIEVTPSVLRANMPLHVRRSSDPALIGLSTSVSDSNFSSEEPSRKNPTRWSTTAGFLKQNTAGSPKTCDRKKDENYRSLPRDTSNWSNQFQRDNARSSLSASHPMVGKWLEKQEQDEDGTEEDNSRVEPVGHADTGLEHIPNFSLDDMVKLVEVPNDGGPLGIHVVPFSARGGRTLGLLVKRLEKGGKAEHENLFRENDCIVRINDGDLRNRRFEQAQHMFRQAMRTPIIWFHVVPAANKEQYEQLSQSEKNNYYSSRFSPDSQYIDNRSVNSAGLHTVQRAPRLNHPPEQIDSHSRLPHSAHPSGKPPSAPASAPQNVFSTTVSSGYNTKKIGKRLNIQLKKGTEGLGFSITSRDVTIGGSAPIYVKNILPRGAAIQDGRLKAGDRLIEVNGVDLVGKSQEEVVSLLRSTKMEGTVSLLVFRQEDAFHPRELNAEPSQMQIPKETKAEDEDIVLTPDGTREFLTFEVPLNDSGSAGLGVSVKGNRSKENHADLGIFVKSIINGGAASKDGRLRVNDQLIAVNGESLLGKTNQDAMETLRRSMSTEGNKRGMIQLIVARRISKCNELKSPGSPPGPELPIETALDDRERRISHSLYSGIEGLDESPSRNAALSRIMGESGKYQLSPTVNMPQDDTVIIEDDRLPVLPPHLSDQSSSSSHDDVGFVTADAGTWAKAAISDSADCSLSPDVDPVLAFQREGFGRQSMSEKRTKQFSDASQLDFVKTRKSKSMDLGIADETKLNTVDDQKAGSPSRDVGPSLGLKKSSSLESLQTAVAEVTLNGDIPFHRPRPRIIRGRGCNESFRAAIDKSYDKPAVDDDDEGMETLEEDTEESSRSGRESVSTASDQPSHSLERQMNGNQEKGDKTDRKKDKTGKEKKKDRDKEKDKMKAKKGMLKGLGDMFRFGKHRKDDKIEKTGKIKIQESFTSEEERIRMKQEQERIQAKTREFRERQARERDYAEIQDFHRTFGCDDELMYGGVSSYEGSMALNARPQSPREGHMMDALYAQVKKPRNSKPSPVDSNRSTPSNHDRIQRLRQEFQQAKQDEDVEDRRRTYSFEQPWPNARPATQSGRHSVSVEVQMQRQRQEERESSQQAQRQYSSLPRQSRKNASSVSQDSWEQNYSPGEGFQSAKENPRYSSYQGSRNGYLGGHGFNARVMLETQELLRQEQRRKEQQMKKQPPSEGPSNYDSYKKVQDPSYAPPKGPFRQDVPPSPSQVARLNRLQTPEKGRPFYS
In short: as §1

[10] = target: T9, PDZ protein (GST-PDZ fusion) (Homo sapiens, UniProt O75970); details: PDZ MUPP-1, PDZ Domain 11
T9 construct: made in house; host or cells: E. coli (DH5alpha, BL21 or JM109)
In short: as §1

[11] = target: T10, PDZ protein (GST-PDZ fusion) (Homo sapiens, UniProt Q9C0E4); details: PDZ KIAA1719, PDZ Domain 6
T10 construct: made in house; host or cells: E. coli (DH5alpha, BL21 or JM109)
In short: as §1

[12] = target: T11, PDZ protein (GST-PDZ fusion) (Homo sapiens, UniProt Q9NZN5); details: PDZ KIAA0382, PDZ Domain 1
T11 construct: made in house; host or cells: E. coli (DH5alpha, BL21 or JM109)
In short: as §1

[13] = target: T12, PDZ protein (GST-PDZ fusion) (Homo sapiens, UniProt Q9Y2H9); details: PDZ KIAA0973, PDZ Domain 1
T12 construct: made in house; host or cells: E. coli (DH5alpha, BL21 or JM109)
In short: as §1

[14] = target: T13, PDZ protein (GST-PDZ fusion) (Homo sapiens, UniProt Q07157)
T13 construct: made in house; host or cells: E. coli (DH5alpha, BL21 or JM109)
T13 sequence (Q07157 whole entry, the tested form may be a part): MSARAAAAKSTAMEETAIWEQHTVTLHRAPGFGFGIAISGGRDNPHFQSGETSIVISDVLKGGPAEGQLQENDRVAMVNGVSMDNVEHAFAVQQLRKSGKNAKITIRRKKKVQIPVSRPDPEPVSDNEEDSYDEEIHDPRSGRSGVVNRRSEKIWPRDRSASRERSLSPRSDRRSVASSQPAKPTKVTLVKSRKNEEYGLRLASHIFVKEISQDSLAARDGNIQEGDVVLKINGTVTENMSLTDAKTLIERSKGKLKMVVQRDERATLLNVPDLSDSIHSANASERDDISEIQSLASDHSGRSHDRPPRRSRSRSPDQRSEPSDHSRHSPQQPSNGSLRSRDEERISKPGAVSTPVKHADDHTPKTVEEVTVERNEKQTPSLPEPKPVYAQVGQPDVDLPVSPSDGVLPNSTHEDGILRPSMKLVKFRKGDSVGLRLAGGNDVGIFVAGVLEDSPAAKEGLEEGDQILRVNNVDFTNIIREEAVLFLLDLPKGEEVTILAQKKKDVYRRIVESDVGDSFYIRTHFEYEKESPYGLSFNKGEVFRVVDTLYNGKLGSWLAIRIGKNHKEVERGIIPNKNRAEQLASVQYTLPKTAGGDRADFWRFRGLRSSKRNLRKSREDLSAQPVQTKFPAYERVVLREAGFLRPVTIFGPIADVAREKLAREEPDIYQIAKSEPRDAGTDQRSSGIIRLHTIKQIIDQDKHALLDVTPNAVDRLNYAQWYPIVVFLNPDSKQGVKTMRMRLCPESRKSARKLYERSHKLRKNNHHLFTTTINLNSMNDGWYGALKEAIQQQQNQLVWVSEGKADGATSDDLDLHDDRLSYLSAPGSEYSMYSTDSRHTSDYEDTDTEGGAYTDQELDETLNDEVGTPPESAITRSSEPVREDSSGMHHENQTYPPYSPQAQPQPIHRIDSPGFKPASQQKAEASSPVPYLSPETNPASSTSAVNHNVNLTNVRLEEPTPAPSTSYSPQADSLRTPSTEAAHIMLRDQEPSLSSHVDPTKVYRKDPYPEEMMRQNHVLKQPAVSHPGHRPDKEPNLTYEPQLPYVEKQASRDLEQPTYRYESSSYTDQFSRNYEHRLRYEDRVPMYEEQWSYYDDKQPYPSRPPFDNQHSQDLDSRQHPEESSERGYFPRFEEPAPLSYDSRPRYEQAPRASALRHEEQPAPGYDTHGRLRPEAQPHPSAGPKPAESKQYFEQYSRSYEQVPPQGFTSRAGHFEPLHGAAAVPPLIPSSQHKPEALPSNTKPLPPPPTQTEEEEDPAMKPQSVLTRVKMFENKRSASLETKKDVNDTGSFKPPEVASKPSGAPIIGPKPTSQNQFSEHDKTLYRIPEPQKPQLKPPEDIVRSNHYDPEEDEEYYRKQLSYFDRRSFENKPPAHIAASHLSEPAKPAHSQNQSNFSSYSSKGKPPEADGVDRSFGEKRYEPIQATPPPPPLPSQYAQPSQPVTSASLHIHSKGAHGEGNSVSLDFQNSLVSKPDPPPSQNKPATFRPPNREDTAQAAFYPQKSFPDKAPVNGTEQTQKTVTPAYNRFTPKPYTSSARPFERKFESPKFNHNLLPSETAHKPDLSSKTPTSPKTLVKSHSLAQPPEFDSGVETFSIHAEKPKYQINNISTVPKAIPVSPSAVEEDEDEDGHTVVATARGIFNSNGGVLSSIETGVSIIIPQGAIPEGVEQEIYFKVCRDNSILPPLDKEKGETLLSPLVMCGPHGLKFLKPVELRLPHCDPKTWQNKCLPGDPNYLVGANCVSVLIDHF
In short: as §1

[15] = target: T14, PDZ protein (GST-PDZ fusion) (Homo sapiens, UniProt Q9P202); details: PDZ KIAA1526, PDZ Domain 1
T14 construct: made in house; host or cells: E. coli (DH5alpha, BL21 or JM109)
T14 sequence (Q9P202 1-907): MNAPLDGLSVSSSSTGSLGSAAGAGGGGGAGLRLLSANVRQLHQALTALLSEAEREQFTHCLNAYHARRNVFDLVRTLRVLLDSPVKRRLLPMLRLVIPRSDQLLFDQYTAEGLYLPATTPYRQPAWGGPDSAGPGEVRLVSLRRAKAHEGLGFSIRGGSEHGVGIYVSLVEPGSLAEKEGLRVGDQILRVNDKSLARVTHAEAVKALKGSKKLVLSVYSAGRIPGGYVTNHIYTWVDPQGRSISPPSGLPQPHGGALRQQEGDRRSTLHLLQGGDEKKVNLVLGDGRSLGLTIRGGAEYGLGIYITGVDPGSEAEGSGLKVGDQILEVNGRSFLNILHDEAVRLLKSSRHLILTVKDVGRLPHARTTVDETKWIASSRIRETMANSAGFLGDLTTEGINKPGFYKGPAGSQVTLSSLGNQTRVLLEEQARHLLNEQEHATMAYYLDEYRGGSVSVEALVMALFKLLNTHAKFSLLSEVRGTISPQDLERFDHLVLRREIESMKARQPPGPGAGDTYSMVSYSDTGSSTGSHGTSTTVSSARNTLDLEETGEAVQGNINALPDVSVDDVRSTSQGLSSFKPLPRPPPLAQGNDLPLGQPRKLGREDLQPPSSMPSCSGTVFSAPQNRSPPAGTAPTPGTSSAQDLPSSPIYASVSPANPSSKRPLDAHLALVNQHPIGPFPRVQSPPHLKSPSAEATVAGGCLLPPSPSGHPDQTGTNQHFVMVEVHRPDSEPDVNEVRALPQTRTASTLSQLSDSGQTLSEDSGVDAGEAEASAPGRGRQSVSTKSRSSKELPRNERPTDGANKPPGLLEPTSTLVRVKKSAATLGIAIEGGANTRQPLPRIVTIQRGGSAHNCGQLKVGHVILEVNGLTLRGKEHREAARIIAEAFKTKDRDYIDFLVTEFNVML
In short: as §1

[16] = target: T15, PDZ protein (GST-PDZ fusion) (Homo sapiens, UniProt Q9UDY2); details: PDZ ZO-2, PDZ Domain 2
T15 construct: made in house; host or cells: E. coli (DH5alpha, BL21 or JM109)
T15 sequence (Q9UDY2 1-1190): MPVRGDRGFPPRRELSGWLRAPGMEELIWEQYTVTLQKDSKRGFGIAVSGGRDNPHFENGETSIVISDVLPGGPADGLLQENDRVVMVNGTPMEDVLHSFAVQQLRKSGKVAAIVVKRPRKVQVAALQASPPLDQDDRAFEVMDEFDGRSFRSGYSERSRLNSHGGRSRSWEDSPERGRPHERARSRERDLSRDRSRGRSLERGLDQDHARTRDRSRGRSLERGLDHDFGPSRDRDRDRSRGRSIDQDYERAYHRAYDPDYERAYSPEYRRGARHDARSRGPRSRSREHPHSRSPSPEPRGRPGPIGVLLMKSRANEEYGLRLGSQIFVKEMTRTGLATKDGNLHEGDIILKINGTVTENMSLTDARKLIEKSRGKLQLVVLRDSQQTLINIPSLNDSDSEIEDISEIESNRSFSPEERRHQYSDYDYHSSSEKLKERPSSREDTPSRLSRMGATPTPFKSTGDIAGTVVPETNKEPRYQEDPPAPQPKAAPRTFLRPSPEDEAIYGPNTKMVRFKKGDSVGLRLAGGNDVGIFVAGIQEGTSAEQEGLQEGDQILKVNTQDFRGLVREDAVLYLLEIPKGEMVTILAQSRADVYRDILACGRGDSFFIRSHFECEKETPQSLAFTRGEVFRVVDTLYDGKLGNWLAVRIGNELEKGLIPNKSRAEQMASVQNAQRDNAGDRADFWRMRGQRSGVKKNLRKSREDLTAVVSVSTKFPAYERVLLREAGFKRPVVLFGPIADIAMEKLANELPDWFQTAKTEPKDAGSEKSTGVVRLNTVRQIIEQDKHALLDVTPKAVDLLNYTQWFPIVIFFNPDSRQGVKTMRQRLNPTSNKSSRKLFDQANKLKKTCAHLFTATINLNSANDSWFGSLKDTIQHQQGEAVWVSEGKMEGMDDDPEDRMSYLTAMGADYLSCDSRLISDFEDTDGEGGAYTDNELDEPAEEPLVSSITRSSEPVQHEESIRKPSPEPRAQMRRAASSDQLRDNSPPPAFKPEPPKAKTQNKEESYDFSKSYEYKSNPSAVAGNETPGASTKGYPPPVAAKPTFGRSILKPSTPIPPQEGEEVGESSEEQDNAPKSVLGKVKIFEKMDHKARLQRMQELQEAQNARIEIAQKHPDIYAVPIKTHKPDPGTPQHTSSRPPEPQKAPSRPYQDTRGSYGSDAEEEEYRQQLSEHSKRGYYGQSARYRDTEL
In short: as §1

Substance: SSR4_HUMAN (EALQPEPGRKRIPLTRTTTF)
Classification ([1]; PDZ Mint 1, PDZ Domain 1, 2): 1 (A450 nm 0-1)
Classification [2]: 1 (A450 nm 0-1)
Classification [3]: 1 (A450 nm 0-1)
Classification ([4]; PDZ KIAA807): 1 (A450 nm 0-1)
Classification ([5]; PDZ BAI-1, PDZ Domain 4): 1 (A450 nm 0-1)
Classification ([5]; PDZ BAI-1, PDZ Domain 5): 1 (A450 nm 0-1)

Substance: LLNVLQRQELGDGLDDEIAV (Biotin-LLNVLQRQELGDGLDDEIAV)
Classification [6]: 1 (A450 nm 0-1)
Classification [7]: 1 (A450 nm 0-1)
Classification [8]: 1 (A450 nm 0-1)
Classification ([4]; PDZ KIAA0807(S), PDZ Domain 1): 1 (A450 nm 0-1)
Classification ([4]; PDZ KIAA807, PDZ Domain not given): 1 (A450 nm 0-1)
Classification [9]: 1 (A450 nm 0-1)

Substance: RIAYSLLGLKDQVNTVGIPI (Biotin-RIAYSLLGLKDQVNTVGIPI) [ephrin A2]
Classification [10]: 1 (A450 nm 0-1)
Classification ([1]; PDZ Mint 1, PDZ Domain 2): 1 (A450 nm 0-1)
Classification [11]: 1 (A450 nm 0-1)
Classification [12]: 1 (A450 nm 0-1)

Substance: TEGNESSEATSPVNAIYSLA (Biotin-TEGNESSEATSPVNAIYSLA) [neurofascin (chicken)]
Classification ([14]; PDZ ZO-1, PDZ Domain 1): 1 (A450 nm 0-1)
Classification ([14]; PDZ ZO-1, PDZ Domain 2): 1 (A450 nm 0-1)
Classification [15]: 1 (A450 nm 0-1)
Classification [16]: 1 (A450 nm 0-1)

Substance: QGDPALQDAGDSSRKEYFI (Biotin-QGDPALQDAGDSSRKEYFI) [Glycophorin C]
Classification [9]: 2 (A450 nm 1-2)
Classification [11]: 1 (A450 nm 0-1)

Substance: PTR2_HUMAN (Biotin-RPMESNPDTEGAQGETEDVL)
Classification [8]: 1 (A450 nm 0-1)
Classification [9]: 1 (A450 nm 0-1)

The next lines start with results.

Classification ([4]; PDZ KIAA807): 2 (A450 nm 1-2)
Classification ([4]; PDZ KIAA0807(S), PDZ Domain 1): 4 (A450 nm 3-4)
Classification [13]: 1 (A450 nm 0-1)
Substance: NSYVRDDAIFIKAIVDLTGL (Biotin-NSYVRDDAIFIKAIVDLTGL) [TRAF2]

Classification ([14]; PDZ ZO-1, PDZ Domain 2): 2 (A450 nm 1-2)
Classification [16]: 1 (A450 nm 0-1)
Substance: PSSRASSRASSRPRPDDLEI (Biotin-PSSRASSRASSRPRPDDLEI) [CX43]
PDZ proteins bound by the PL (TABLE 7) ([5]; as cited in the text from TABLE 7): ZO-2 and ZO-1
